Experimental data published in doi:10.1101/2025.07.29.667382 (bioRxiv, 2025).
Groups on a side chain read outwards from the residue. No end group written: not given here. Alexa‑547 = not defined here

T1: Snx3 (recombinant, without fluorescent tag) (yeast, UniProt Q08826 1-162)
T1 sequence: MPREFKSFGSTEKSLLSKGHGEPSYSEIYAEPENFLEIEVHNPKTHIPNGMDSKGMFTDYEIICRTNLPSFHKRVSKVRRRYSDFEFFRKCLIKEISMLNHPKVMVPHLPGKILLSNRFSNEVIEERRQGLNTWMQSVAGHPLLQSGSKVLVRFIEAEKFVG


Experiments:
[1] = biological target: Retromer^mClover (Vps26-Vps29-Vps35, carrying mClover on Vps29) (yeast, UniProt P40335;P38759;P34110); test: coat formation on supported membrane tubes, fluorescence microscopy
[2] = biological target: T1, Snx3 (recombinant, without fluorescent …); test: as above

Chain of Retromer^mClover (Vps26-Vps29-Vps35, carrying mClover on Vps29) (P40335 whole entry, chain 1 of 3): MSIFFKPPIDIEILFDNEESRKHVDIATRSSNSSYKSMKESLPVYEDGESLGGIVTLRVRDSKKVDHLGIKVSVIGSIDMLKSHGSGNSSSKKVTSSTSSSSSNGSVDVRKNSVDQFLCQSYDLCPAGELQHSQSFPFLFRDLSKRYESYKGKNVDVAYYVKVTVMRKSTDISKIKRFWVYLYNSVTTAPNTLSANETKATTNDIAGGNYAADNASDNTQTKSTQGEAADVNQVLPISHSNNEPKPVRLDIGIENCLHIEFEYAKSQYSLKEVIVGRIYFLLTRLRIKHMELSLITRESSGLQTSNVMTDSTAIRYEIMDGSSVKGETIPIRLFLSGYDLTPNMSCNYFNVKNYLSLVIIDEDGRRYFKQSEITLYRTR
Chain of Retromer^mClover (Vps26-Vps29-Vps35, carrying mClover on Vps29) (P38759 whole entry, chain 2 of 3): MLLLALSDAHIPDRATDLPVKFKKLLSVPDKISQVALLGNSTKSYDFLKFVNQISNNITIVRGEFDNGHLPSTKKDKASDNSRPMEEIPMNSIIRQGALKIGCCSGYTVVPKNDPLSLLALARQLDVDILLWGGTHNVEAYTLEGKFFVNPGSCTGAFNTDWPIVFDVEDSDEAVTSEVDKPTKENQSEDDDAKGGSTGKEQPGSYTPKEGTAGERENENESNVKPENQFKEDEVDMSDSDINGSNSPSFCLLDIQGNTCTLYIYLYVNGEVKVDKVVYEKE
Chain of Retromer^mClover (Vps26-Vps29-Vps35, carrying mClover on Vps29) (P34110 whole entry, chain 3 of 3): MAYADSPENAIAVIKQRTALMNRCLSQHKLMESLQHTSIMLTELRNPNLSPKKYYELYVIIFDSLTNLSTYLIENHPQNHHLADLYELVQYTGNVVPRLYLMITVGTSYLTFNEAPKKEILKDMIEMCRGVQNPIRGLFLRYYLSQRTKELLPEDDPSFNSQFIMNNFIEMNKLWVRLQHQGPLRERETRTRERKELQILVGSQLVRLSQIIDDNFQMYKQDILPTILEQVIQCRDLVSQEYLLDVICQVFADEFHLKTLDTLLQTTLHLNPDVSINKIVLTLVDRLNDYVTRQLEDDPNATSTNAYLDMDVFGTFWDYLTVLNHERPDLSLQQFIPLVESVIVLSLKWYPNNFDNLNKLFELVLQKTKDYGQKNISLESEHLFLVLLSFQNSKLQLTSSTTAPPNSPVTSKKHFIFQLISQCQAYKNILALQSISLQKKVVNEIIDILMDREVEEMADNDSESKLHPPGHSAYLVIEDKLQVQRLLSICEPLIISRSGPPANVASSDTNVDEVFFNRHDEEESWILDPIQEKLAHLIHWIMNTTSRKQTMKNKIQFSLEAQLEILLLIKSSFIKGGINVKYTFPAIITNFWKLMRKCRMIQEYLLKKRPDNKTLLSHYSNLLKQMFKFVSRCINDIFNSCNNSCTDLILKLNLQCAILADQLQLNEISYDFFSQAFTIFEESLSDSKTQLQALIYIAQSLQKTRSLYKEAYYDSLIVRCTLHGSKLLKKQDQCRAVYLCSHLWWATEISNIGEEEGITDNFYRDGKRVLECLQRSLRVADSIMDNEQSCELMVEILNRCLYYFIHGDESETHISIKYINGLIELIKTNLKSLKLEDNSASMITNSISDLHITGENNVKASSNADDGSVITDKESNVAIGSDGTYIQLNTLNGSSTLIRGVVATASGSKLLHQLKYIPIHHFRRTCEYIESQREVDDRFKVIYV

binding result [1]	binding result [2]	Binder
binds	–	SNX-BAR (Vps5-Vps17) (complex) chain 1: MDYEDNLEAPVWDELNHEGDKTQSLVSNSIESIGQISTNEERKDNELLETTASFADKIDLDSAPEWKDPGLSVAGNPQLEEHDNSKADDLINSLAPEQDPIADLKNSTTQFIATRESGGALFTGNANSPLVFDDTIYDANTSPNTSKSISGRRSGKPRILFDSARAQRNSKRNHSLKAKRTTASDDTIKTPFTDPLKKAEKENEFVEEPLDDRNERRENNEGKFTASVEKNILEQVDRPLYNLPQTGANISSPAEVEENSEKFGKTKIGSKVPPTEKAVAFKVEVKDPVKVGELTSIHVEYTVISESSLLELKYAQVSRRYRDFRWLYRQLQNNHWGKVIPPPPEKQSVGSFKENFIENRRFQMESMLKKICQDPVLQKDKDFLLFLTSDDFSSESKKRAFLTGSGAINDSNDLSEVRISEIQLLGAEDAAEVLKNGGIDAESHKGFMSISFSSLPKYNEADEFFIEKKQKIDELEDNLKKLSKSLEMVDTSRNTLAASTEEFSSMVETLASLNVSEPNSELLNNFADVHKSIKSSLERSSLQETLTMGVMLDDYIRSLASVKAIFNQRSKLGYFLVVIENDMNKKHSQLGKLGQNIHSEKFREMRKEFQTLERRYNLTKKQWQAVGDKIKDEFQGFSTDKIREFRNGMEISLEAAIESQKECIELWETFYQTNL chain 2: MTSAVPYDPYDDLDNNPFAEPQEEDSEPAATTTDGSSSMSEERVGTEQTAASVQDNGTANNIQNGLGEEGNATRSKTSNEHNENQQPSQPSERVILPERSDEKKKYTLLAKVTGLERFGSATGKKENPTIIFDCSTNLPTFRKQQYKNVKKSYEEFHQLFKYLNVAIQESFVPTLPSAYTTFGINSEEDRMKVTRNFQLWFNRLSQDPLIIRNEEVAFFIESDFNTYTPINKSKSLASGLKRKTLKQLAPPYDEITELAEFRPLVKSIYVVSQSLQEKLLRVSRNRKMMVQEENAFGQDFVNLDEHNKLYRRYGKILTAVGDIDSIIATMDMATLYDGLEWIVRDAYAVKEALTNRHFIMRNLVQAQQNSKAKQEQARRFRSRRDINPMKIDEALRQLKAAAKNEQVLTLKLQRITSNMIIERKQWISWYEEWIRSSIKEFTLRKIEYERKKLTLLERVRSDIRKADENGGLSRLGRHAVSNNNSDTSQTLKGDSWTGESNRKSQIPINKIAHTEFDDELFTEDDGYNSQDSDTTSLNARHAASLLGMSTK
binds	binds	GGGGGKKIINEEINLDSLGGC([maleimide-Alexa‑547]) (reading uncertain) [Ear1^547 (fluorescent Alexa-547-labelled Ear1 peptide)]
